What all share (assay): ELISA: 500 ng peptide coated per well, 29E4 at 40 ng/mL, HRP goat anti-rabbit Ig 1:16,000, ABS 450 nm, duplicates [CONT. 2]
A general note: In an ELISA, binding on a coated surface is turned into a signal by an enzyme label.

Assay [1] has as its target T1, P22 (alanine substituted, FIG. 3 panel E).
T1 construct: also called H232 to alanine
The source says: (§1) HRP Goat anti-rabbit Ig was applied at 1:16,000 dilution in all reactions.
(§2) Peptides were synthesized to achieve ≥70% HPLC purity by a commercial vendor (GenScript Biotech, Piscataway, NJ). Peptides were reconstituted in either water, or with addition of acetonitrile, methanol, 10% acetic acid, or DMSO, depending on the overall charge of each peptide. Key residues required for mAb binding were probed by ELISA using overlapping peptides, truncated peptides and alanine substituted peptides. Reactions were performed in duplicate using NUNC 96-well flatbottom MaxiSorp plates (Thermo Scientific). After coating each well with 500 ng of peptide in 100 μL coating buffer (50 mM NaHCO₃, pH 9.6), the plates were sealed and incubated at 4° C. overnight. […] Plates were then washed once with wash buffer, incubated with 100 μL mAb 29E4 (serially diluted from 1 mg/mL) for 1 hour at 37° C. Plates were further washed four times with wash buffer, and then incubated at 37° C. with 100 μL of a horse radish peroxidase (HRP)-conjugated secondary antibody against the primary antibody, diluted 1:16,000 according to manufacturer's protocols (KPL, Inc., Gaithersburg, MD). After washing four times with wash buffer, 100 μL of K-Blue Aqueous TMB substrate (Neogen, Lexington, KY) was added to the plates and incubated uncovered for 30 minutes at room temperature. To stop the reaction, 100 μL of 2 N Sulphuric acid was added to each well and absorbance were measured immediately at 450 nm. All dilutions of reagents were performed in ELISA diluent (20% NGS in 1×PBS with 0.1% Triton-X 100).

Assay [2] deals with T2, P2 (alanine substituted, FIG. 3 panel E).
T2 construct: not the overlapping peptide P2 of panel A; also called Q212 to alanine
T2 sequence (peptide, as listed by the source): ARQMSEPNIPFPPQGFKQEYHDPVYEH
Description: as §1, §2

For assay [3], the target named is T3, P16 (alanine substituted, FIG. 3 panel E).
T3 construct: also called G226 to alanine
T3 sequence (peptide, as listed by the source): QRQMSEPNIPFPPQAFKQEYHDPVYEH
Description: as §1, §2

Assay [4] addresses T4, P19 (alanine substituted, FIG. 3 panel E).
T4 construct: also called Q229 to alanine
Description: as §1, §2

In assay [5] the target is T5, P26 (alanine substituted, FIG. 3 panel E).
T5 construct: also called Y236 to alanine
T5 sequence (peptide, as listed by the source): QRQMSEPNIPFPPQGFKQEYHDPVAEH
Description: as §1, §2

For assay [6], the target named is T6, P11 (alanine substituted, FIG. 3 panel E).
T6 construct: also called P221 to alanine
T6 sequence (peptide, as listed by the source): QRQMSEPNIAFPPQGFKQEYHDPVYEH
Description: as §1, §2

Assay [7] has as its target T7, P18 (alanine substituted, FIG. 3 panel E).
T7 construct: also called K228 to alanine
Description: as §1, §2

Assay [8] deals with T8, P23 (alanine substituted, FIG. 3 panel E).
T8 construct: also called D233 to alanine
T8 sequence (peptide, as listed by the source): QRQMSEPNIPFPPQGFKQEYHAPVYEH
Description: as §1, §2

In assay [9] the target is T9, P10 (alanine substituted, FIG. 3 panel E).
T9 construct: also called I220 to alanine
T9 sequence (peptide, as listed by the source): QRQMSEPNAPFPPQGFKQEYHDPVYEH
Description: as §1, §2

Assay [10] concerns the target T10, P14 (alanine substituted, FIG. 3 panel E).
T10 construct: also called P224 to alanine
Description: as §1, §2

The target in assay [11] is T11, P5 (alanine substituted, FIG. 3 panel E).
T11 construct: not the overlapping peptide P5 of panel A; also called M215 to alanine
T11 sequence (peptide, as listed by the source): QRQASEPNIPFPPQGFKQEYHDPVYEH
Description: as §1, §2

Assay [12] deals with T12, P28 (alanine substituted, FIG. 3 panel E).
T12 construct: also called H238 to alanine
T12 sequence (peptide, as listed by the source): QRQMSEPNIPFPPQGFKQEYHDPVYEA
Description: as §1, §2

Assay [13] concerns the target T13, alanine substituted peptide P12 (F222 to alanine) (human).
T13 construct: The entry already carries the substitution
Description: as §1, §2

In assay [14] the target is T14, P4 (alanine substituted, FIG. 3 panel E).
T14 construct: not the overlapping peptide P4 of panel A; also called Q214 to alanine
T14 sequence (peptide, as listed by the source): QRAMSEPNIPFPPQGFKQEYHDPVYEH
Description: as §1, §2

The target in assay [15] is T15, P9 (alanine substituted, FIG. 3 panel E).
T15 construct: also called N219 to alanine
T15 sequence (peptide, as listed by the source): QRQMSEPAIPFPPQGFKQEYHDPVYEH
Description: as §1, §2

T10 sequence (peptide, as listed by the source): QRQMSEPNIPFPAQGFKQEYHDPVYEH
T7 sequence (peptide, as listed by the source): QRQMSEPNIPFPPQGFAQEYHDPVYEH
T13 sequence (peptide, as listed by the source): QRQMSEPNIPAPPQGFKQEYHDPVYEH
T1 sequence (peptide, as listed by the source): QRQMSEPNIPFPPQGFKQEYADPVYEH
T4 sequence (peptide, as listed by the source): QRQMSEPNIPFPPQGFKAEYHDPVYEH

B1: ETV1 rabbit monoclonal antibody (29E4) (antibody, V domains shown)
VH: QELEESGGDLVKPGASLTLTCTASGFFFSAENHICWVRQAPGKGLEWIGCVYIGSYVGGSGDPYYASWAKGRFTISKTSSTTVTLQMSSLTAADTATYFCARDLGSLWGPGTLVTVSS
VL: DVVMTQTASSVSAAVGGTVTIACQSSQSVYDNNNLAWFQQKPGQPPKRLIYSASTLASGVSSRFKGSGYGTQFTLTISDVQCDDAATYYCVGAFSGYIFVFGGGTEVVVK
notes: constant regions are not; also called 29E4 mAb; ETV1 29E4 mAb
As to B1, the binding result in assay [1], in assay [2], in assay [3], in [4], in [5] and in [6] was “binds” throughout. Moreover, the binding result in assay [7], in assay [8], in assay [9], in [10], in assay [11] and in assay [12] was “binds” throughout. Besides, the binding result in assay [13] is “no binding (tested: 40 ng/mL)”; in [14], “binds”; in assay [15] it was “binds”.

The values are drawn from patent publication US20260227403A1 (HENRY M JACKSON FOUNDATION FOR THE ADVANCEMENT OF MILITARY …, published 2026).
